Test results taken from PMC7234810.

What was measured:
[1] = biological target: Human ST2-Fc chimera (human) (UniProt Q01638)
[2] = biological target: Mouse IL-33-TRAP-Fc (a fusion protein of ST2 and IL-1RAcP with an Fc tag) (mouse); experiment: SPR; BIAcore T200, single cycle kinetics, 25°C; mouse ST2-Fc (~200 RU) or mouse TRAP-Fc (~400 RU) captured on a Protein G chip; HpBARI injected in three-fold dilutions; 10 mM NaH2PO4 pH 7.5, 150 mM NaCl, 50 uM EDTA, 0.05% surfactant P20; 1:1 model
[3] = biological target: Mouse ST2-Fc chimera (mouse) (UniProt P14719); experiment: as above
Chain of Mouse ST2-Fc chimera (mouse) (P14719 27-332, change not shown): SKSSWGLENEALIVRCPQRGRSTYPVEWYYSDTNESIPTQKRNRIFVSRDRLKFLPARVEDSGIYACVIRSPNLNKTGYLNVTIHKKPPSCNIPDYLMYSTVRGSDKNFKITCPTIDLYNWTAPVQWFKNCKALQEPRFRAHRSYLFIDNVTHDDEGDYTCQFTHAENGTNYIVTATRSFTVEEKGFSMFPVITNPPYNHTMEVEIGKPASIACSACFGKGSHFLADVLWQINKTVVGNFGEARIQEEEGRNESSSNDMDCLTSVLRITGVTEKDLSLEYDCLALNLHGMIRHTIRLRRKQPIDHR

Chain of Human ST2-Fc chimera (human) (Q01638 19-328, stated change not applied): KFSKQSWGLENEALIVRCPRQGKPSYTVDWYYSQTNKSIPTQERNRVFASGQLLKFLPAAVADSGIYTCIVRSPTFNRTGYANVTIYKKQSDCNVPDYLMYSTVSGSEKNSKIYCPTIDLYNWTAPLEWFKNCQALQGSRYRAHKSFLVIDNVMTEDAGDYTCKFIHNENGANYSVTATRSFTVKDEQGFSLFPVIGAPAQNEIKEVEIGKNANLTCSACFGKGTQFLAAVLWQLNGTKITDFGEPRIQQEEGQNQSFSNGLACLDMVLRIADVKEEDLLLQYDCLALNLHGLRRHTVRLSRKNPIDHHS

H. polygyrus Binds Alarmin Receptor and Inhibits (HpBARI), N-terminal tagged (natural protein)
IC50 of inhibition of IL-33-induced IFN-γ production from human PBMCs (5 ng/ml IL-12 + 0.1 ng/ml oxidation resistant human IL-33, 44 hr, ELISA); blocks human IL-33 with human ST2 [1]: > 1000 nM | Kd [2]: 0.17 nM | koff [2]: 0.00065 s⁻¹ | kon [2]: 3.9e+06 M⁻¹ s⁻¹ | Kd [3]: 0.26 nM | koff [3]: 0.0011 s⁻¹ | kon [3]: 4e+06 M⁻¹ s⁻¹

HpBARI expressed with C-terminal tags (natural protein)
fold change of the off-rate against the N-terminal tagged construct [2]: 4 fold
